Assay results from patent publication US12060408B2, “Screening assays, modulators and modulation of activation of Receptor for Advanced Glycation End-products (RAGE)” (Monash University, priority 2017, dated 2024).
Blank lines part the entries; values can stand above or below the molecule they belong to. Ends that are not written are not given here.

What was measured:
CXCR2 = target: T1, CXCR2 (Homo sapiens, UniProt P25025); assay: Receptor-HIT BRET, β-arr2/Venus with RAGE/Rluc8 and CXCR2; type: cell-based; settings: in the presence of CXCR2
T1 construct: expressed in transfected cells; host or cells: HEK293FT, transient
T1 sequence (P25025 whole entry): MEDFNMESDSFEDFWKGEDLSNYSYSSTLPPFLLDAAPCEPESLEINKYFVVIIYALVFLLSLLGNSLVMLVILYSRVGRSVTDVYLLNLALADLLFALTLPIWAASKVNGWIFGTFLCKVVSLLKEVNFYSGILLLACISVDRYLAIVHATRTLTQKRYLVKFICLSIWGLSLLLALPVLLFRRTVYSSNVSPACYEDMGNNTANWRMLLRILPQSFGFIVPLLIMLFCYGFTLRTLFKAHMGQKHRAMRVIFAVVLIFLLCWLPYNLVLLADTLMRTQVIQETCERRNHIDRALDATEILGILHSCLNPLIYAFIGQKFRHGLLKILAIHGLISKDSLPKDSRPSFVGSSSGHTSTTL
T1 sequence (P32121 whole entry partner): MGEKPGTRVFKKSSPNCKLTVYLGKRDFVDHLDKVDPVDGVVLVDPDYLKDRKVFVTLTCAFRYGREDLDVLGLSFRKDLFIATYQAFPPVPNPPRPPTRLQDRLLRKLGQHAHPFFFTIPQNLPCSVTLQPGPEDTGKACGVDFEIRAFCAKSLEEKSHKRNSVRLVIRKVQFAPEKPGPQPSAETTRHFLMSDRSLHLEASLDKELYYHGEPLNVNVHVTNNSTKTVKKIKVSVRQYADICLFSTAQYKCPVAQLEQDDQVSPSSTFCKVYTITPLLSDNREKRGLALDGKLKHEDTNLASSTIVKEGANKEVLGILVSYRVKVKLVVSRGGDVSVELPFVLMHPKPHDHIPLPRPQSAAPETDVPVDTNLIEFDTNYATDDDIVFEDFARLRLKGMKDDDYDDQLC
Source text: (§1) Bioluminescence Resonance Energy Transfer (BRET)
(§2) BRET is an established technology for studying protein-protein proximity in live cells, particularly involving GPCRs (Pfleger and Eidne, 2006). One protein of interest was linked to a bioluminescent donor enzyme, Rluc8, a variant of Renilla luciferase, and a second linked to an acceptor fluorophore, Venus, a variant of green fluorescent protein. If in close proximity (<10 nm), energy resulting from the rapid oxidation of a cell-permeable coelenterazine substrate by the donor can transfer to the acceptor, which in turn fluoresces at a longer characteristic wavelength.
(§3) Plasmids were transiently co-expressed in human embryonic kidney (HEK) 293FT cells and BRET measurements taken at 37° C. using a POLARstar Omega or LUMIstar plate reader (BMG Labtech, Mornington, Victoria, Australia) with 460-490 nm (‘donor emission’) and 520-550 nm (‘acceptor emission’) filters, or a VICTOR Light plate reader (Perkin Elmer, Glen Waverley, Victoria, Australia) with 400-475 nm (‘donor emission’) and 520-540 nm (‘acceptor emission’) filters, or a CLARIOstar plate reader (BMG Labtech, Mornington, Victoria, Australia) with 420-480 nm (‘donor emission’) and 520-620 nm (‘acceptor emission’) filters. […]
(§4) For BRET kinetic assays, the final pre-treatment reading is presented at the zero time point (time of ligand/vehicle addition). […]

CXCR1 = target: T2, CXCR1 (Homo sapiens, UniProt P25024); assay: Receptor-HIT BRET, β-arr2/Venus with RAGE/Rluc8 and CXCR1; type: cell-based; settings: in the presence of CXCR1
T2 construct: expressed in transfected cells; host or cells: HEK293FT, transient
T2 sequence (P25024 whole entry, species assumed): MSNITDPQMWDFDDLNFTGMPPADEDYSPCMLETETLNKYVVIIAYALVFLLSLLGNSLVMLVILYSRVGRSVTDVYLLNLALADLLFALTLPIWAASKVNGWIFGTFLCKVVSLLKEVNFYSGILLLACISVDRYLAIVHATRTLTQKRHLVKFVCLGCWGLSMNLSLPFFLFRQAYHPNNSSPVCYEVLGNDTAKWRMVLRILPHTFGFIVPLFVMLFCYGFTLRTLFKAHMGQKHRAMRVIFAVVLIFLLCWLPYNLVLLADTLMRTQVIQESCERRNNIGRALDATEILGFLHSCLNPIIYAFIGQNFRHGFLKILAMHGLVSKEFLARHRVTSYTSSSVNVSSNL
T2 sequence (P32121 whole entry partner, species assumed): as the sequence (P32121 whole entry partner) above
Source text: as §1, §2, §3, §4

[1] = tested on: RAGE ligand-dependent signalling; settings: Putranto et al., 2013; cited from earlier work
TIRAP = TIRAP (Homo sapiens, UniProt P58753); settings: Putranto et al., 2013; cited from earlier work
Sequence of TIRAP (P58753 whole entry, species assumed): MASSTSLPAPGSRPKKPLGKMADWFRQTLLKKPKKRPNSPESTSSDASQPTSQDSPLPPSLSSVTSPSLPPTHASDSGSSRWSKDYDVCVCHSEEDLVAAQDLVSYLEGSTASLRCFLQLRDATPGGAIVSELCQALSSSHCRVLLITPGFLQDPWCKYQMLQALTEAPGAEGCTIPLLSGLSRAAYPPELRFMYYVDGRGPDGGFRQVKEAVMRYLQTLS

CCR6 = target: T3, CCR6 (Homo sapiens, UniProt P51684); assay: Receptor-HIT BRET, β-arr2/Venus with RAGE/Rluc8 and CCR6; type: cell-based; settings: in the presence of CCR6
T3 construct: expressed in transfected cells; host or cells: HEK293FT, transient
T3 sequence (P51684 whole entry): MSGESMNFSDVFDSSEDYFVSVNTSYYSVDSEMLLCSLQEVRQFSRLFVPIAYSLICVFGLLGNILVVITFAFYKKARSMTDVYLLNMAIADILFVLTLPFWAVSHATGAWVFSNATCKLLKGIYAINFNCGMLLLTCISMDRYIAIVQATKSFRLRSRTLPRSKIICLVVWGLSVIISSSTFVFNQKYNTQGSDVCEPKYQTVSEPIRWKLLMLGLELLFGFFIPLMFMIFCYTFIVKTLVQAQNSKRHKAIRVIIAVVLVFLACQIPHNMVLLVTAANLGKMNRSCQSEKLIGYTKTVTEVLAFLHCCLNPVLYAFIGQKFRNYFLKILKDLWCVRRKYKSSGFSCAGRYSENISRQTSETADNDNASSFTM
T3 sequence (P32121 whole entry partner): as the sequence (P32121 whole entry partner) above
Source text: as §1, §2, §3, §4

U-87MG cells = settings: Putranto et al., 2013; cited from earlier work
CXCR4 = target: T4, CXCR4 (Homo sapiens, UniProt P61073); assay: Receptor-HIT BRET, β-arr2/Venus with RAGE/Rluc8 and CXCR4; type: cell-based; settings: in the presence of CXCR4
T4 construct: expressed in transfected cells; host or cells: HEK293FT, transient
T4 sequence (P61073 whole entry): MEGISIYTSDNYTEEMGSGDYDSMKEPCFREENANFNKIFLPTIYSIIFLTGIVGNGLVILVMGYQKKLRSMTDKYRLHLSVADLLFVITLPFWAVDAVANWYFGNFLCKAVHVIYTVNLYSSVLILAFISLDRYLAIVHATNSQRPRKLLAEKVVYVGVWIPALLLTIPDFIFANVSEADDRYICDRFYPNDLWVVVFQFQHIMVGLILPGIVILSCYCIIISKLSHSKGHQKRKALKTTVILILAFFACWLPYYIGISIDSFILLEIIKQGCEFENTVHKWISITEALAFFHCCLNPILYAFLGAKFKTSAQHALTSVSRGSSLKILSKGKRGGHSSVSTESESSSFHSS
T4 sequence (P32121 whole entry partner): as the sequence (P32121 whole entry partner) above
Source text: as §1, §2, §3, §4

CCR7 = target: T5, CCR7 (Homo sapiens, UniProt P32248); assay: Receptor-HIT BRET, β-arr2/Venus with RAGE/Rluc8 and CCR7; type: cell-based; settings: in the presence of CCR7
T5 construct: expressed in transfected cells; host or cells: HEK293FT, transient
T5 sequence (P32248 25-378): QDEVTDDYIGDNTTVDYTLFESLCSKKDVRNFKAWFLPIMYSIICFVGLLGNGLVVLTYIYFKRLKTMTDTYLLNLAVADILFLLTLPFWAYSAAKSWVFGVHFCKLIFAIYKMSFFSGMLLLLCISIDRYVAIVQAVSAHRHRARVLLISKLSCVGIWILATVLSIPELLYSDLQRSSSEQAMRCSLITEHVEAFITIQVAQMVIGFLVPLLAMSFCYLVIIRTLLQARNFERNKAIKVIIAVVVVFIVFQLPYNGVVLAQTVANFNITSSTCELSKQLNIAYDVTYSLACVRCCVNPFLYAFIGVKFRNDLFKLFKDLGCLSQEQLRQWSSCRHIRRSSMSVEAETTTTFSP
T5 sequence (P32121 whole entry partner): as the sequence (P32121 whole entry partner) above
Source text: as §1, §2, §3, §4

CCR1 = target: T6, CCR1 (Homo sapiens, UniProt P32246); assay: Receptor-HIT BRET, β-arr2/Venus with RAGE/Rluc8 and CCR1; type: cell-based; settings: in the presence of CCR1
T6 construct: expressed in transfected cells; host or cells: HEK293FT, transient
T6 sequence (P32246 whole entry): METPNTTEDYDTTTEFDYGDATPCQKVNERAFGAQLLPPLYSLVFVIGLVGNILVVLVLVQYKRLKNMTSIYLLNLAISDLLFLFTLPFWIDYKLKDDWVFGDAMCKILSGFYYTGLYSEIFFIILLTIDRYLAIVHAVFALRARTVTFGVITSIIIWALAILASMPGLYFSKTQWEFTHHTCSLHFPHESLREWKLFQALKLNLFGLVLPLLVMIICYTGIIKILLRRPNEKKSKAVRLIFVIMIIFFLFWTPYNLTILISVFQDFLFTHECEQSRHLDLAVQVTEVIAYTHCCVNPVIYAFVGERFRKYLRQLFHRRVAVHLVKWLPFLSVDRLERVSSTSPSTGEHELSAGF
T6 sequence (P32121 whole entry partner): as the sequence (P32121 whole entry partner) above
Source text: as §1, §2, §3, §4

CXCR3 = target: T7, CXCR3 (Homo sapiens, UniProt P49682); assay: Receptor-HIT BRET, β-arr2/Venus with RAGE/Rluc8 and CXCR3; type: cell-based; settings: in the presence of CXCR3
T7 construct: expressed in transfected cells; host or cells: HEK293FT, transient
T7 sequence (P49682 whole entry, species assumed): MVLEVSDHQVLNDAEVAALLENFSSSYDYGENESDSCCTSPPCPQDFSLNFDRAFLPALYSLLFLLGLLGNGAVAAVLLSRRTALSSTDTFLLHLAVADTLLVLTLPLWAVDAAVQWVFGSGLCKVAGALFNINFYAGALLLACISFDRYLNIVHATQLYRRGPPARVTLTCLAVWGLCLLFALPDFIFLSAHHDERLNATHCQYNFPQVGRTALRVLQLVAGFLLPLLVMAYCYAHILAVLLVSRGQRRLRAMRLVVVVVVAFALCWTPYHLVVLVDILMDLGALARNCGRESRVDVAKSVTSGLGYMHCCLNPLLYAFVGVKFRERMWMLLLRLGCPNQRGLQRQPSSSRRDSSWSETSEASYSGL
T7 sequence (P32121 whole entry partner, species assumed): as the sequence (P32121 whole entry partner) above
Source text: as §1, §2, §3, §4

AT1 = target: T8, AT1 (Homo sapiens, UniProt P30556); assay: BRET between mCherry/RAGE338-361 and luciferase-tagged AT1; type: cell-based; set-up: expressed in transfected cells; host or cells: HEK293FT, transient
T8 sequence (P30556 1-359): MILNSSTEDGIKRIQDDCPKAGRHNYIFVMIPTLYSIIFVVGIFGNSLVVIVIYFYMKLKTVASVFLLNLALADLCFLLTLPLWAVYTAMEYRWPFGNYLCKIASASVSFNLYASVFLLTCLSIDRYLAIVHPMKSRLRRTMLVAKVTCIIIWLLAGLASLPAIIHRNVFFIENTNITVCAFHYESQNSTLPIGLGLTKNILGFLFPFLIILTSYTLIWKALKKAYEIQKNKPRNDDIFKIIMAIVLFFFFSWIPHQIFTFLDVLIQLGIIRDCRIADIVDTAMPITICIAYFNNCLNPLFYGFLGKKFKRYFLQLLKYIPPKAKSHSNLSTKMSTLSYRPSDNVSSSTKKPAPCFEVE
Method: FIG. 21A. BRET between mCherry/RAGE338-361 and Nluc/AT1 is increased with Ang II. Data are presented as mean±SEM; n=3-5.
FIG. 21D. Lack of Ang II-induced BRET signal between AT1/Rluc8 and mCherry/RAGE338-361 where cells were transfected with 50 ng AT1/Rluc8 cDNA, 300 ng RAGE/Venus cDNA and 0, 50, 100, 200, 300 or 400 ng of mCherry/RAGE338-361 CDNA or pcDNA3 control plasmid as indicated. Data are presented as mean±SEM; n=3-4. Filters: mCherry 650 nm/Rluc8 450 nm.
as §1
BRET is an established technology for studying protein-protein proximity in live cells, particularly involving GPCRs (Pfleger and Eidne, 2006). […]
as §3

[2] = tested on: Human microvascular endothelial cells (HMEC); assay: Ang II-induced pro-inflammatory signalling (ICAM-1, MCP-1 RT-PCR) in HMEC; type: cell-based; settings: overexpression of construct
Method: Primary aortic endothelial cells (PMAEC) were isolated from the aortae of (wild-type) C57bl6 mice and AGER KO mice and cultured in Dulbecco's modified Eagle's medium (DMEM)/F12 endothelial cell growth supplement (ECGS) supplemented media. Chinese Hamster Ovary (CHO) cells were cultured using F12 media (10% FCS with 2 mM glutamine). Human microvascular endothelial cells (HMEC) were cultured in MCDB 131 medium (10% FCS with 10 mM glutamine, EGF and hydrocortisone).
Cellular Expression of Pro-Inflammatory Markers and Mediators by Quantitative Real-Time PCR
After 2 hours of exposure to Ang II (1 μM) or the RAGE ligand, S100A8/A9 (5 ng/ml) cells were placed in Trizol, mRNA extracted and cDNA synthesized. Changes in the gene expression of the NFκB subunit, p65 (RelA) or NFκB-activated target genes (e.g ICAM-1, VCAM-1) were estimated by quantitative real-time RT-PCR, performed using the TaqMan system based on real-time detection of accumulated fluorescence (ABI Prism 7700, Perkin-Elmer Inc, PE Biosystems, Foster City, CA, USA). Gene expression was normalized to 18S mRNA and reported as fold change compared to the level of expression in untreated control mice/cells, which were given an arbitrary value of 1.

CXCR6 = target: T9, CXCR6 (Homo sapiens, UniProt O00574); assay: Receptor-HIT BRET, β-arr2/Venus with RAGE/Rluc8 and CXCR6; type: cell-based; settings: in the presence of CXCR6
T9 construct: expressed in transfected cells; host or cells: HEK293FT, transient
T9 sequence (O00574 whole entry): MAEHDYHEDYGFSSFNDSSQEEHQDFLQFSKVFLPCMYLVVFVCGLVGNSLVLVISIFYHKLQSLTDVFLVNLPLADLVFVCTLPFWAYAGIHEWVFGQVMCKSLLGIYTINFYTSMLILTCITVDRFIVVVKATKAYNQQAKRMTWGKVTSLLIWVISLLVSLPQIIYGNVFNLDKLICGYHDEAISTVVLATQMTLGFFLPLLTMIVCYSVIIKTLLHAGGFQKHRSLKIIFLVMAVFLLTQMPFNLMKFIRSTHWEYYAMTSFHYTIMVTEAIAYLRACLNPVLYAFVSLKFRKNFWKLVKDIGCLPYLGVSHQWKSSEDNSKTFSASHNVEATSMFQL
T9 sequence (P32121 whole entry partner): as the sequence (P32121 whole entry partner) above
Source text: as §1, §2, §3, §4

CCR10 = target: T10, CCR10 (Homo sapiens, UniProt P46092); assay: Receptor-HIT BRET, β-arr2/Venus with RAGE/Rluc8 and CCR10; type: cell-based; settings: in the presence of CCR10
T10 construct: expressed in transfected cells; host or cells: HEK293FT, transient
T10 sequence (P46092 whole entry): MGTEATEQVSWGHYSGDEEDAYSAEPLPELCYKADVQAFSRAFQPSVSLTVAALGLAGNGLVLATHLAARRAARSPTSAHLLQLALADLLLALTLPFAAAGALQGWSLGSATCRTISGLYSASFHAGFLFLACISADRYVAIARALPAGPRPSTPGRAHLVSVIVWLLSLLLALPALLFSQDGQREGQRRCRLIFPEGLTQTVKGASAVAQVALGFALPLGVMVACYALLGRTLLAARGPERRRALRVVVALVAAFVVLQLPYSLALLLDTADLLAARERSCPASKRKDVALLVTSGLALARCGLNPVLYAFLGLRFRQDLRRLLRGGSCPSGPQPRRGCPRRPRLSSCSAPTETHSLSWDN
T10 sequence (P32121 whole entry partner): as the sequence (P32121 whole entry partner) above
Source text: as §1, §2, §3, §4

- recruitment of β-arr2/Venus proximal to RAGE/Rluc8 (CXCR2): recruitment
- recruitment of β-arr2/Venus proximal to RAGE/Rluc8 (CXCR1): Weak
Molecule: CXCL8: chemokine ligand used to activate CXCR1 and CXCR2

- recruitment of β-arr2/Venus proximal to RAGE/Rluc8 (CCR6): recruitment
Molecule: CCL20: chemokine ligand used to activate CCR6

- recruitment of β-arr2/Venus proximal to RAGE/Rluc8 (CCR7): recruitment
Molecule: CCL19: chemokine ligand used to activate CCR7

- recruitment of β-arr2/Venus proximal to RAGE/Rluc8 (CCR1): recruitment
Molecule: CCL3: chemokine ligand used to activate CCR1

- recruitment of β-arr2/Venus proximal to RAGE/Rluc8 (CXCR6): recruitment
B1: CXCL16: chemokine ligand used to activate CXCR6 (protein)
chain: NEGSVTGSCYCGKRISSDSPPSVQFMNRLRKHLRAYHRCLYYTRFQLLSWSVCGGNKDPWVQELMSCLDLKECGHAYSGIVAHQKHLLP

- recruitment of β-arr2/Venus proximal to RAGE/Rluc8 (CCR10): Lack of
B2: CCL27: chemokine ligand used to activate CCR10 (protein)
chain: FLLPPSTACCTQLYRKPLSDKLLRKVIQVELQEADGDCHLQAFVLHLAQRSICIHPQNPSLSQWFEHQERKLHGTLPKLNFGMLRKMG

The next lines start with the molecule.

Molecule: S391A-RAGE387-395: fragment of RAGE cytosolic tail of Putranto et al., 2013 (ELNQAEEPE; cytosolic tail peptide; UniProt Q15109 387-395, looked up, variant S391A)
- attenuation of apoptosis induced by RAGE ligand S100B [1]: did not attenuate
- binding to TIRAP (TIRAP): did not show any appreciable binding

Molecule: S391E-RAGE387-395: fragment of RAGE cytosolic tail of Putranto et al., 2013, mimicking the phosphorylated state of RAGE (ELNQEEEPE; cytosolic tail peptide; UniProt Q15109 387-395, looked up, variant S391E)
- inhibition of particular aspects of RAGE ligand-dependent signalling (apoptosis, cell migration and invasion) [1]: inhibitor
- growth of U-87MG cells (intracellular adenosine triphosphate content) (U-87MG cells): not significantly affected

Molecule: CXCL 12: chemokine ligand used to activate CXCR4
- β-arr2/Venus proximity to RAGE/Rluc8 (CXCR4): reduction

Molecule: CXCL11: chemokine ligand used to activate CXCR3
- recruitment of β-arr2/Venus proximal to RAGE/Rluc8 (CXCR3): Lack of

Molecule: mCherry/RAGE338-361: mCherry fusion of RAGE338-361 (LGTLALALGILGGLGTAALLIGVI; also: mCherry fusion)
- Ang II-induced BRET signal with AT1/Rluc8 (AT1; cells also transfected with RAGE/Venus cDNA, filters mCherry 650 nm/Rluc8 450 nm): Lack of
- BRET with Nluc/AT1 (AT1; with Ang II): increased
- inhibition of Ang II-induced ICAM-1 expression [2]: inhibited
